# What was measured:
# [1] = substrate: N=C(N)NCCCCN; experiment: Kinetic studies, E. coli agmatinase; type: biochemical; settings: other: substrate = labelled compound; n/a = no activity with the substrate; pH 9.5
# Description: All assays were initiated by adding the enzyme to a previously equilibrated buffer with the substrate in solution (the concentrations of used substrates were between 0.2–3 fold the Km). Urea was determined by a colorimetric method with α-isonitrosopropiophenone. The protein concentrations were determined by the Bradford’s method, with bovine serum albumin as standard. Initial velocity and enzymatic inhibition experiments were performed in duplicate and repeated three times. The inhibitory patterns were initially determined by double reciprocal plots and re-plots of intercepts and slopes versus inhibitor concentrations. […] Velocities are expressed as μmol of urea/10 min.
# [2] = substrate: N=C(N)NCCCCN; experiment: Kinetic and inhibition studies, Chimera A2; type: biochemical, human; settings: other: substrate = labelled compound, pH 9.5, 2 mM Mn2+
# Description: (§1) Bacterial cultures were grown with shaking at 37 °C in Luria Broth media, in the presence of ampicillin (100 μg/mL). The wild-type and mutant human liver arginase cDNAs were directionally cloned into the pBluescript II KS(+) expression vector and then expressed in E. coli JM109, following induction with 1 mM isopropyl β-D-thiogalactopyranoside. The bacterial cells were disrupted by sonication on ice (5 × 30 s pulses), centrifuged for 20 min at 12,000× g, and the obtained supernatant was precipitated with ammonium sulfate (60% saturation). The pellet, collected by centrifugation at 12,000× g for 10 min, was re-suspended in buffer 5 mM Tris–HCl (pH 7.5) containing 2 mM MnCl2 and dialyzed for 6 h at 4 °C against the same buffer. After incubation with 5 mM MnCl2 for 10 min at 60 °C, the enzyme variants were purified as previously described [17]. The purity of the enzymes was evaluated by SDS–PAGE stained by Coomassie blue and immunodetection using an anti- rat arginase I antibody.
# (§2) The single, double, triple, and chimera variants of human arginase type I were obtained by PCR, using the QuickChange site-directed mutagenesis kit (Stratagene, La Jolla, CA, USA); the plasmid pBluescript II KS(+) containing the human liver arginase cDNA was used as template. To obtain the chimeric species of human arginase type I, serial mutations were made in each loop to be modified, using as template DNA the wild-type arginase gene or the previous done mutation, subcloned in the plasmid pBluescript II KS (+).
# (§3) All assays were initiated by adding the enzyme to a previously equilibrated buffer with the substrate in solution (the concentrations of used substrates were between 0.2–3 fold the Km). Urea was determined by a colorimetric method with α-isonitrosopropiophenone [38]. The protein concentrations were determined by the Bradford’s method, with bovine serum albumin as standard. Initial velocity and enzymatic inhibition experiments were performed in duplicate and repeated three times. […]
# [3] = substrate: N=C(N)NCCCCN; experiment: Kinetic and inhibition studies, S137C-N139D mutant; type: biochemical, human; settings: other: substrate = labelled compound, pH 9.5, 2 mM Mn2+
# Description: (§4) All assays were initiated by adding the enzyme to a previously equilibrated buffer with the substrate in solution (the concentrations of used substrates were between 0.2–3 fold the Km). Urea was determined by a colorimetric method with α-isonitrosopropiophenone [38]. […] Initial velocity and enzymatic inhibition experiments were performed in duplicate and repeated three times. The inhibitory patterns were initially determined by double reciprocal plots and re-plots of intercepts and slopes versus inhibitor concentrations. […] Velocities are expressed as μmol of urea/10 min.
# [4] = substrate: N=C(N)NCCCCN; experiment: Kinetic and inhibition studies, N139D mutant; type: biochemical, human; settings: other: substrate = labelled compound, pH 9.5, 2 mM Mn2+
# Description: as §1, §2, §3
# [5] = substrate: N=C(N)NCCCCN; experiment: Kinetic and inhibition studies, S137C mutant; type: biochemical, human; settings: other: substrate = labelled compound, pH 9.5, 2 mM Mn2+
# Description: as §1, §2, §3
# [6] = substrate: N=C(N)NCCCCN; experiment: Kinetic and inhibition studies, triple mutant; type: biochemical, human; settings: other: substrate = labelled compound, pH 9.5, 2 mM Mn2+
# Description: as §4
# [7] = substrate: N=C(N)NCCCCN; experiment: Kinetic and inhibition studies, N130D mutant; type: biochemical, human; settings: other: substrate = labelled compound, pH 9.5, 2 mM Mn2+
# Description: as §1, §2, §3
# [8] = substrate: N=C(N)NCCCCN; experiment: Kinetic and inhibition studies, N130D-S137C mutant; type: biochemical, human; settings: other: substrate = labelled compound, pH 9.5, 2 mM Mn2+
# Description: as §1, §2, §3
# [9] = substrate: N=C(N)NCCCCN; experiment: Kinetic and inhibition studies, N130D-N139D mutant; type: biochemical, human; settings: other: substrate = labelled compound, pH 9.5, 2 mM Mn2+
# Description: as §4
protein,measurement,setting,value
E. coli agmatinase (Escherichia coli K-12) (protein) MSTLGHQYDNSLVSNAFGFLRLPMNFQPYDSDADWVITGVPFDMATSGRAGGRHGPAAIRQVSTNLAWEHNRFPWNFDMRERLNVVDCGDLVYAFGDAREMSEKLQAHAEKLLAAGKRMLSFGGDHFVTLPLLRAHAKHFGKMALVHFDAHTDTYANGCEFDHGTMFYTAPKEGLIDPNHSVQIGIRTEFDKDNGFTVLDACQVNDRSVDDVIAQVKQIVGDMPVYLTFDIDCLDPAFAPGTGTPVIGGLTSDRAIKLVRGLKDLNIVGMDVVEVAPAYDQSEITALAAATLALEMLYIQAAKKGE,Km,[1],1100 µM
same,kcat,[1],120 s⁻¹
same,kcat/Km,[1],110000 M⁻¹ s⁻¹
"Chimera A2 (I129T/N130Y/T131A+∆ P132-T134) of human arginase type I (Homo sapiens; DEL129-131/I129T/L133Y/N130Y/P132T/T134A) (protein, made in house; host or cells: E. coli JM109) MSAKSRTIGIIGAPFSKGQPRGGVEEGPTVLRKAGLLEKLKEQECDVKDYGDLPFADIPNDSPFQIVKNPRSVGKASEQLAGKVAEVKKNGRISLVLGGDHSLAIGSISGHARVHPDLGVIWVDAHTDTYATTSGNLHGQPVSFLLKELKGKIPDVPGFSWVTPCISAKDIVYIGLRDVDPGEHYILKTLGIKYFSMTEVDRLGIGKVMEETLSYLLGRKKRPIHLSFDVDGLDPSFTPATGTPVVGGLTYREGLYITEEIYKTGLLSGLDIMEVNPSLGKTPEEVTRTVNTAVAITLACFGLAREGNHKPIDYLNPPK",Km,[2],6000 ± 1000 µM
same,kcat,[2],1.1 ± 0.2 s⁻¹
same,kcat/Km,[2],180 M⁻¹ s⁻¹
"human arginase type I S137C-N139D (Homo sapiens; N139D/S137C) (protein, made in house; host or cells: E. coli JM109) MSAKSRTIGIIGAPFSKGQPRGGVEEGPTVLRKAGLLEKLKEQECDVKDYGDLPFADIPNDSPFQIVKNPRSVGKASEQLAGKVAEVKKNGRISLVLGGDHSLAIGSISGHARVHPDLGVIWVDAHTDINTPLTTTCGDLHGQPVSFLLKELKGKIPDVPGFSWVTPCISAKDIVYIGLRDVDPGEHYILKTLGIKYFSMTEVDRLGIGKVMEETLSYLLGRKKRPIHLSFDVDGLDPSFTPATGTPVVGGLTYREGLYITEEIYKTGLLSGLDIMEVNPSLGKTPEEVTRTVNTAVAITLACFGLAREGNHKPIDYLNPPK",Km,[3],900 µM
same,kcat,[3],1.1 s⁻¹
same,kcat/Km,[3],1200 M⁻¹ s⁻¹
"human arginase type I N139D (Homo sapiens; N139D) (protein, made in house; host or cells: E. coli JM109) MSAKSRTIGIIGAPFSKGQPRGGVEEGPTVLRKAGLLEKLKEQECDVKDYGDLPFADIPNDSPFQIVKNPRSVGKASEQLAGKVAEVKKNGRISLVLGGDHSLAIGSISGHARVHPDLGVIWVDAHTDINTPLTTTSGDLHGQPVSFLLKELKGKIPDVPGFSWVTPCISAKDIVYIGLRDVDPGEHYILKTLGIKYFSMTEVDRLGIGKVMEETLSYLLGRKKRPIHLSFDVDGLDPSFTPATGTPVVGGLTYREGLYITEEIYKTGLLSGLDIMEVNPSLGKTPEEVTRTVNTAVAITLACFGLAREGNHKPIDYLNPPK",Km,[4],5300 µM
same,kcat,[4],1.3 s⁻¹
same,kcat/Km,[4],250 M⁻¹ s⁻¹
"human arginase type I S137C (Homo sapiens; S137C) (protein, made in house; host or cells: E. coli JM109) MSAKSRTIGIIGAPFSKGQPRGGVEEGPTVLRKAGLLEKLKEQECDVKDYGDLPFADIPNDSPFQIVKNPRSVGKASEQLAGKVAEVKKNGRISLVLGGDHSLAIGSISGHARVHPDLGVIWVDAHTDINTPLTTTCGNLHGQPVSFLLKELKGKIPDVPGFSWVTPCISAKDIVYIGLRDVDPGEHYILKTLGIKYFSMTEVDRLGIGKVMEETLSYLLGRKKRPIHLSFDVDGLDPSFTPATGTPVVGGLTYREGLYITEEIYKTGLLSGLDIMEVNPSLGKTPEEVTRTVNTAVAITLACFGLAREGNHKPIDYLNPPK",Km,[5],7500 µM
same,kcat,[5],1.8 s⁻¹
same,kcat/Km,[5],240 M⁻¹ s⁻¹
"human arginase type I N130D-S137C-N139D (Homo sapiens; N130D/N139D/S137C) (protein, made in house; host or cells: E. coli JM109) MSAKSRTIGIIGAPFSKGQPRGGVEEGPTVLRKAGLLEKLKEQECDVKDYGDLPFADIPNDSPFQIVKNPRSVGKASEQLAGKVAEVKKNGRISLVLGGDHSLAIGSISGHARVHPDLGVIWVDAHTDIDTPLTTTCGDLHGQPVSFLLKELKGKIPDVPGFSWVTPCISAKDIVYIGLRDVDPGEHYILKTLGIKYFSMTEVDRLGIGKVMEETLSYLLGRKKRPIHLSFDVDGLDPSFTPATGTPVVGGLTYREGLYITEEIYKTGLLSGLDIMEVNPSLGKTPEEVTRTVNTAVAITLACFGLAREGNHKPIDYLNPPK",Km,[6],1600 µM
same,kcat,[6],0.9 s⁻¹
same,kcat/Km,[6],560 M⁻¹ s⁻¹
"human arginase type I N130D (Homo sapiens; N130D) (protein, made in house; host or cells: E. coli JM109) MSAKSRTIGIIGAPFSKGQPRGGVEEGPTVLRKAGLLEKLKEQECDVKDYGDLPFADIPNDSPFQIVKNPRSVGKASEQLAGKVAEVKKNGRISLVLGGDHSLAIGSISGHARVHPDLGVIWVDAHTDIDTPLTTTSGNLHGQPVSFLLKELKGKIPDVPGFSWVTPCISAKDIVYIGLRDVDPGEHYILKTLGIKYFSMTEVDRLGIGKVMEETLSYLLGRKKRPIHLSFDVDGLDPSFTPATGTPVVGGLTYREGLYITEEIYKTGLLSGLDIMEVNPSLGKTPEEVTRTVNTAVAITLACFGLAREGNHKPIDYLNPPK",Km,[7],1400 µM
same,kcat,[7],3 s⁻¹
same,kcat/Km,[7],2100 M⁻¹ s⁻¹
"human arginase type I N130D-S137C (Homo sapiens; N130D/S137C) (protein, made in house; host or cells: E. coli JM109) MSAKSRTIGIIGAPFSKGQPRGGVEEGPTVLRKAGLLEKLKEQECDVKDYGDLPFADIPNDSPFQIVKNPRSVGKASEQLAGKVAEVKKNGRISLVLGGDHSLAIGSISGHARVHPDLGVIWVDAHTDIDTPLTTTCGNLHGQPVSFLLKELKGKIPDVPGFSWVTPCISAKDIVYIGLRDVDPGEHYILKTLGIKYFSMTEVDRLGIGKVMEETLSYLLGRKKRPIHLSFDVDGLDPSFTPATGTPVVGGLTYREGLYITEEIYKTGLLSGLDIMEVNPSLGKTPEEVTRTVNTAVAITLACFGLAREGNHKPIDYLNPPK",Km,[8],1700 µM
same,kcat,[8],2.3 s⁻¹
same,kcat/Km,[8],1300 M⁻¹ s⁻¹
"human arginase type I N130D-N139D (Homo sapiens; N130D/N139D) (protein, made in house; host or cells: E. coli JM109) MSAKSRTIGIIGAPFSKGQPRGGVEEGPTVLRKAGLLEKLKEQECDVKDYGDLPFADIPNDSPFQIVKNPRSVGKASEQLAGKVAEVKKNGRISLVLGGDHSLAIGSISGHARVHPDLGVIWVDAHTDIDTPLTTTSGDLHGQPVSFLLKELKGKIPDVPGFSWVTPCISAKDIVYIGLRDVDPGEHYILKTLGIKYFSMTEVDRLGIGKVMEETLSYLLGRKKRPIHLSFDVDGLDPSFTPATGTPVVGGLTYREGLYITEEIYKTGLLSGLDIMEVNPSLGKTPEEVTRTVNTAVAITLACFGLAREGNHKPIDYLNPPK",Km,[9],1100 µM
same,kcat,[9],1.6 s⁻¹
same,kcat/Km,[9],1400 M⁻¹ s⁻¹

# From publication PMC9224512, “New Insights into the Determinants of Specificity in Human Type I Arginase: Generation of a Mutant That Is Only Active with Agmatine as Substrate” (International Journal of Molecular Sciences, 2022)
